US20140065154A1, “TLR3 BINDING AGENTS” (INNATE PHARMA, priority 2011, published 2014)
Entries after “also recorded” stand apart in the source; their conditions may differ.

Assays:
TLR3 [1] = target: T1, TLR3 (Homo sapiens, UniProt O15455); experiment: IP-10 production by donor PBMC in response to dsRNA and drug combinations; type: cell-based; conditions: mAb 50 μg/ml
Experimental: IP-10 production was assessed in human donors in response to polyAU (IPH3102), believed to be a specific agonist of TLR3, or pIC, believed to be an agonist of TLR3 as well as other dsRNA receptors such as RIG-I and MDA-5. Fresh PBMC were isolated from whole blood of two independent donors. […] Cells were incubated 1 hr at 37° C. prior addition of 300 μg/ml IPH3102 or 30 μg/ml poly(I:C). Cells were incubated for 24 additional hours at 37° C. Supernatant were then harvested to quantify IP10 production by ELISA. Cells were then recovered, stained with 7-AAD and analyzed by flow cytometry (FACS) to evaluate potential toxic effects of any drugs.

TLR3 [2] = target: T1, TLR3; experiment: 293T-TLR3-ISRE luciferase reporter gene assay; type: cell-based; parameters: host or cells: 293T (ATCC #CRL-1573), stably carrying pISRE-luc; conditions: dsRNA TLR3 agonist
From the text: A reporter gene assay using as promoter ISRE (IFN-stimulated response element) and as reporter gene and protein luciferase was set up. A 293T cell line (ATCC, #CRL-1573) was stably transfected with pISRE-luc plasmid (#219089—Stratagene), further selected by cloning as inducing optimal response to IFN-alpha stimulation and referred to as control 293T-ISRE. This cell line was further stably transfected with pUNO-humanTLR3 plasmid (#puno-htlr3—InVivogen) or pUNO-mouseTLR3 plasmid (#puno-mtlr3—InVivogen) and referred to as 293T-TLR3-ISRE and 293T-mTLR3-ISRE respectively. On day 0, cells are seeded at 4×10^5 cells/mL in complete culture medium in 96-well culture plate (100 μl/well). Cells are first incubated at 37° C. for 20 hours, then 50 μL of medium are discarded and cells are activated with 100 μL/well final of increasing amounts of polyAU together with various concentrations of anti-TLR3 antibodies. Cells incubated with fresh medium will be used as background luciferase activity. Cells are incubated at 37° C. for 6 hours. 100 μL of freshly thawed Steady Glo (Promega) are added to each well, plates were incubated 10 min at RT in the dark and the light emitted in each well is quantified as Count Per Second (CPS) on a gamma-counter (TopCount) apparatus.
Antibodies were tested for inhibition of TLR3 signaling in a luciferase based reporter gene activity (293T-TLR3-ISRE). […] Briefly, dsRNA TLR3 agonists were used to induce TLR3 signaling in the reporter assay in the presence of anti-TLR3 antibodies, and TLR3 signaling was assessed.
In a further set of experiments, 293-huTLR3 cells were incubated with different concentrations of the anti-TLR3 mAbs for 1 to 2 hours (see FIG. 1A; mAb concentration is represented in axis in μg/ml on a logarithmic scale) followed by the addition to the medium of the TLR3 agonist polyAU at a concentration of 300 μg/ml. Luciferase expression was measured after 6 h. […]
Similarly the kinetics of inhibition of the antibodies was evaluated in 293T-TLR3 luciferase assay. […] Luciferase expression was measured at 6 h post poly(A:U) addition. […]

TLR3 [3] = target: T1, TLR3; experiment: SPR competition assay with polyAU in acidic buffer; type: binding; parameters: purchased R&D Systems; conditions: pH 5.6
Experimental: (a) General Biacore T100 methods. SPR measurements were performed on a Biacore T100 apparatus (Biacore GE Healthcare) at 25° C. In all Biacore experiments HBS-EP+ buffer (Biacore GE Healthcare) or 10 mM sodium acetate pH 5.6, 150 mM NaCl, 0.05% P20 served as running buffer and sensorgrams were analyzed with Biaevaluation 4.1 and Biacore T100 Evaluation software. Recombinant human and mouse TLR3 were purchased from R&D Systems. (b) Protein immobilization. Recombinant TLR3 protein was immobilized covalently to carboxyl groups in the dextran layer of a Biacore Series 5 Sensor Chip CM5 (chip). The chip surface was activated with EDC/NHS (0.2M N-ethyl-N′-(3-dimethylaminopropyl) carbodiimidehydrochloride, 0.05M N-hydroxysuccinimide (Biacore GE Healthcare)). […] Deactivation of the remaining activated groups was performed using 100 mM ethanolamine pH 8 (Biacore GE Healthcare). (c) Antibody binding analysis was run using HBS-EP+ (neutral pH). Antibodies at a concentration of 10 μg/ml were injected for 2 min at a constant flow rate of 10 μl/min over the immobilized proteins and allowed to dissociate for 3 min before regeneration by a ten second injection of 10 mM NaOH, 500 mM NaCl regeneration buffer. Blank correction was performed on line by co-injecting the soluble antibodies onto the reference dextran flow cell. (d) Competition assay in acidic buffer (pH 5.6). Flow rate was set to 10 μl/min, the first antibody at a concentration of 50 μg/ml (or polyAU at 100 μg/ml) was injected for 2 min, 3 times successively in order to saturate the rhTLR3 surface. The second antibody (or polyAU at 100 μg/ml when the polyAU was added after first antibody) was then injected for 2 min also at 50 μg/ml and allowed to dissociate for 3 min before regeneration by a 15 second injection of 10 mM NaOH, 500 mM NaCl regeneration buffer. Blank correction was also performed on line and the curve using the saturating antibody (or neucleic acid) followed by an injection of buffer subtracted to remove the signal due to the dissociation of the first complex. The resulting signal was compared to that obtained by the injection of the second antibody directly onto the rhTLR3 surface.
Competition assays were conducted according to the methods described for SPR, item d) at pH 5.6.
Buffer (followed by polyAU) is represented in the lower line, while 31C3 followed by polyAU is in the upper line.

TLR3 [4] = target: T1, TLR3; experiment: Myeloid DC (MdDC) secretion and expression inhibition test; type: cell-based; parameters: Myeloid DC (MdDC) were obtained from PBMC by isolating PBMC from normal healthy human donors; endogenous in cells; host or cells: human monocyte-derived DC (CD14+ monocytes cultured with GM-CSF and IL-4); conditions: polyAU
Experimental: Myeloid DC (MdDC) were obtained from PBMC by isolating PBMC from normal healthy human donors. Monocytes were purified from PBMC using positive selection with human CD14 microbeads (Miltenyi Biotech) following general instructions. Monocytes were further derived into DC (MdDC) by 5-6 days incubation in human GM-CSF (Leucomax, SP) and human IL-4 (R&D Systems) at respectively 200 ng/ml and 20 ng/ml.
The resulting MdDC were then seeded at 10^6 cells/ml, in duplicate, in flat bottom 96-well plates. Cells were activated for 20 hours in a final volume of 200 μl, together with the anti-TLR3 antibodies at the indicated concentrations. Increasing amounts of polyAU were added to the wells to obtain a dose effect read-out at the dose and timepoint as indicated.
Supernatants were collected after 20 h of stimulation, frozen at −20° C., and further assayed for IL-6 and IP-10 using Enzyme-linked immunosorbent assay. Cells were then harvested, stained for activation markers CD86 (with a.huCD86 mouse, IgG1, FITC, BD Biosciences, ref 555657), with detection using FACSCanto™ flow cytometer (BD Biosciences).
Myeloid DC (MdDC) secretion inhibition test is performed according to the section titled Materials and Methods.

[5] = target: T2, recombinant human TLR3 extracellular domain (R&D Systems) (human, UniProt O15455 27-711); experiment: SPR (Biacore T100), rhTLR3 immobilised on CM5 chip, bivalent affinity, pH 5.6, mean of 2 or 3 experiments
T2 construct: also called rhTLR3; human rec TLR3; not shown: His tag (R&D #1487-TR)

[6] = target: T2, recombinant human TLR3 extracellular …; experiment: SPR (Biacore T100), rhTLR3 immobilised on CM5 chip, bivalent affinity, pH 7.2, mean of 2 or 3 experiments
Experimental: (a) General Biacore T100 methods. SPR measurements were performed on a Biacore T100 apparatus (Biacore GE Healthcare) at 25° C. In all Biacore experiments HBS-EP+ buffer (Biacore GE Healthcare) or 10 mM sodium acetate pH 5.6, 150 mM NaCl, 0.05% P20 served as running buffer and sensorgrams were analyzed with Biaevaluation 4.1 and Biacore T100 Evaluation software. Recombinant human and mouse TLR3 were purchased from R&D Systems. (b) Protein immobilization. Recombinant TLR3 protein was immobilized covalently to carboxyl groups in the dextran layer of a Biacore Series 5 Sensor Chip CM5 (chip). The chip surface was activated with EDC/NHS (0.2M N-ethyl-N′-(3-dimethylaminopropyl) carbodiimidehydrochloride, 0.05M N-hydroxysuccinimide (Biacore GE Healthcare)). […] Deactivation of the remaining activated groups was performed using 100 mM ethanolamine pH 8 (Biacore GE Healthcare). (c) Antibody binding analysis was run using HBS-EP+ (neutral pH). Antibodies at a concentration of 10 μg/ml were injected for 2 min at a constant flow rate of 10 μl/min over the immobilized proteins and allowed to dissociate for 3 min before regeneration by a ten second injection of 10 mM NaOH, 500 mM NaCl regeneration buffer. Blank correction was performed on line by co-injecting the soluble antibodies onto the reference dextran flow cell. (d) Competition assay in acidic buffer (pH 5.6). […]

TLR3 [7] = target: T1, TLR3; experiment: SPR (Biacore) bivalent affinity on immobilized TLR3; type: binding; parameters: purchased R&D Systems; conditions: neutral pH; own vs commercially available antibodies
Experimental: (a) General Biacore T100 methods. SPR measurements were performed on a Biacore T100 apparatus (Biacore GE Healthcare) at 25° C. In all Biacore experiments HBS-EP+ buffer (Biacore GE Healthcare) or 10 mM sodium acetate pH 5.6, 150 mM NaCl, 0.05% P20 served as running buffer and sensorgrams were analyzed with Biaevaluation 4.1 and Biacore T100 Evaluation software. Recombinant human and mouse TLR3 were purchased from R&D Systems. (b) Protein immobilization. Recombinant TLR3 protein was immobilized covalently to carboxyl groups in the dextran layer of a Biacore Series 5 Sensor Chip CM5 (chip). The chip surface was activated with EDC/NHS (0.2M N-ethyl-N′-(3-dimethylaminopropyl) carbodiimidehydrochloride, 0.05M N-hydroxysuccinimide (Biacore GE Healthcare)). […] Deactivation of the remaining activated groups was performed using 100 mM ethanolamine pH 8 (Biacore GE Healthcare). (c) Antibody binding analysis was run using HBS-EP+ (neutral pH). Antibodies at a concentration of 10 μg/ml were injected for 2 min at a constant flow rate of 10 μl/min over the immobilized proteins and allowed to dissociate for 3 min before regeneration by a ten second injection of 10 mM NaOH, 500 mM NaCl regeneration buffer. […]
Binding to TLR3 was determined at neutral (pH 7.2) and acid (pH 5.6) conditions, and KD values were calculated. […]

B1: 34A3: anti-human TLR3 monoclonal antibody; VH SEQ ID NO: 34, VL SEQ ID NO: 35 (antibody, listed as Mus musculus, V domains shown)
VH: MEWRWIFLFLLSGTTGVHSEIQLQQSGPELVKPGASVKVSCKASGYVFTTYSIYWVKQSHGKSLEWIGYIDPYNGDTSYNQKFKGKATLTVDKSSSTAYMHLNSLTSEDSTVYYCAREGNYYGYFDYWGQGTTLTVS
VL: MDFQVQIFSFLLMSASVIMSRGQIVLTQSPALMSASPGEKVTMTCSASSSVSYMFWYQQKPRSSPKPWIYLTSNLASGVPARFSGSGSGTSYSLTISSMEAEDAATYYCQQWTGNPPTFGGGTKLEIK
modifications: SIGNAL (1)..(19); SIGNAL (1)..(22)
IP-10 production in response to polyAU (TLR3 [1]; donor 2, IPH3102 300 μg/ml): substantially reduce IP-10 production | IP-10 production in response to polyIC (TLR3 [1]; donors 1 and 2, poly(I:C) 30 μg/ml): substantially reduce IP-10 production | inhibition of TLR3 signaling (TLR3 [2]): strongly inhibited TLR3 signaling in a dose dependent fashion; also recorded: enhanced inhibition effect at low concentrations | antibody binding to TLR3 chip previously incubated with polyAU (TLR3 [3]): able to bind TLR3 even in the presence of polyAU

B2: antibody 29H3 (antibody, V domains shown)
VH: DVQLQESGPDLVKPSQSLSLTCTVTGYSITSGYSWHWIRQFLGNKLEWMGYIHYSGITNYNPSLRSRISFTRDTSKNQFFLQLNSVTTEDTATYYCARDGYYGMDYWGQGTSVTVS
VL: DIVMTQSQKFMSTSVGDRVSITCKASQNVRTSVAWYQQKPGQSPKALIYLASNRHTGVPDRFTGSGSGTDFTLTVSNIQSEDLADYFCLQHWNYPYTFGGGTKLEIK
notes: also called 29H3.7; CNCM I-4187
TLR3-mediated CD83/CD86 expression (TLR3 [4]): effectively downregulated TLR3-mediated CD83/CD86 expression | TLR3-mediated cytokine/chemokine secretion (IP-10, IL-6) (TLR3 [4]): abrogated TLR3-mediated cytokine/chemokine secretion, to a similar extent as full length antibodies | Kd [5]: 0.011 nM | Kd [6]: 0.0474 nM

B3: 29H3: anti-human TLR3 monoclonal antibody, IgG1; VH SEQ ID NO: 10, VL SEQ ID NO: 11; CNCM I-4187 (antibody, listed as Mus musculus, V domains shown)
VH: MRVLILLCLFTAFPGILSDVQLQESGPDLVKPSQSLSLTCTVTGYSITSGYSWHWIRQFLGNKLEWMGYIHYSGITNYNPSLRSRISFTRDTSKNQFFLQLNSVTTEDTATYYCARDGYYGMDYWGQGTSVTVS
VL: MDFQTQVFVFVLLWLSGVDGDIVMTQSQKFMSTSVGDRVSITCKASQNVRTSVAWYQQKPGQSPKALIYLASNRHTGVPDRFTGSGSGTDFTLTVSNIQSEDLADYFCLQHWNYPYTFGGGTKLEIK
modifications: SIGNAL (1)..(18); SIGNAL (1)..(20)
notes: anti-human TLR3 monoclonal antibody, IgG1; CNCM I-4187
TLR3-mediated CD83/CD86 expression (TLR3 [4]): effectively downregulated TLR3-mediated CD83/CD86 expression | TLR3-mediated cytokine/chemokine secretion (IP-10, IL-6) (TLR3 [4]): abrogated TLR3-mediated cytokine/chemokine secretion | antibody binding to TLR3 chip previously incubated with polyAU (TLR3 [3]): able to bind TLR3 even in the presence of polyAU | binding affinity for TLR3 compared (TLR3 [7]): significantly better
